Read-outs that look alike come from different tables or passages of the source.
Columns and labels:
[1] = Differential scanning calorimetry (DSC), heat denaturation; assay type: physicochemical
Description: The transition midpoint of the heat denaturation (Tm) of the avidin proteins was studied using a Calorimetry Sciences Corporation (CSC) Nano II differential scanning calorimeter, as in previous reports (22,23). Proteins (˜0.5 mg/ml) were analyzed both in the absence and presence of biotin (3:1 molar ratio; biotin:avidin monomer).

[2] = Microplate assay: remaining biotin-binding activity after heat treatment; assay type: physicochemical; conditions: 50 mM phosphate buffer, 100 mM NaCl, pH 7.0
Description: The inactivation of the proteins during heat-treatment was analysed by using a microplate assay (23). The proteins were heated to 99.9° C. in 50 mM phosphate buffer containing 100 mM NaCl (pH 7.0) for 32 minutes. The remaining activity was probed by measuring the ability of the proteins to bind biotinylated alkaline phosphatase by coating the microplate wells with samples of the heated proteins.

[3] = tested on: Proteinase K; experiment: Proteinase K assay (proteolytic resistance, SDS-PAGE); assay type: physicochemical; conditions: for digested after treatment with Proteinase K: 16 hours, 37° C., Proteinase K 1/25 w/w, without biotin; for cleavage by Proteinase K: proteins saturated with biotin before treatment
Description: The proteolytic resistance of the proteins were studied using proteolysis by Proteinase K, as previously described (7). Protein sample (4 μg) was incubated in the presence of Proteinase K ( 1/25 w/w) at 37° C. for a predetermined time period, denatured by boiling in sample buffer (SDS, 2-mercaptoethanol) and subjected to SDS-PAGE followed by coomassie staining.

[4] = IAsys optical biosensor (SPR), 2-iminobiotin binding; conditions: 2-iminobiotin surface, 20° C., 50 mM borate buffer pH 9.5, 1 M NaCl
Description: The biotin-binding characteristics of the different avidins were studied by a surface plasmon resonance (SPR) optical biosensor (IAsys). The binding affinities to the 2-iminobiotin surface in 50 mM borate buffer (pH 9.5, 1 M NaCl) were measured as previously reported (7).

[5] = Radiobiotin dissociation assay; assay type: binding; conditions: [3H]biotin, various temperatures
Description: The dissociation rate of [3H]biotin from avidin, AVR4/5 and the avidin mutants was determined as described in (20) at various temperatures. The activation thermodynamic parameters for AVR4/5(C122S) and avidin were determined by analysis of the dependence of the dissociation rate upon temperature using the global fit of all data, as described in (21).

[6] = Fluorescent biotin dissociation assay; assay type: binding
Description: The binding of labelled biotin to avidins was analysed by a method based on the quenching of a biotin-coupled fluorescent probe ArcDia BF560 (ArcDia Ltd., Turku, Finland) due to binding to avidin, as previously described (18). The measurements were performed using a PerkinElmer LS55 luminometer with thermostated cuvette (25 or 50° C.). The signal measured for 3600 sec (25° C.) or 2400 sec (50° C.) was used to determine the dissociation rate constant.

[7] = cited from earlier work
[8] = tested on: Proteinase K; conditions: even without bound biotin; refs (8,32); cited from earlier work

| Substance | Tm, transition midpoint of heat denaturation [1] [°C] | ΔTm, change in Tm upon addition of a three-fold molar excess of biotin ([1]; DSC) [°C] | Tm(+biotin) ([1]; DSC, biotin 3:1 molar ratio biotin:avidin monomer) [°C] | ΔH (unfolding enthalpy) ([1]; DSC, sample without biotin) [kcal/mol] | Tm(−biotin) ([1]; DSC, without biotin, average ± S.D) [°C] | Activity: biotin-binding activity after 32 min treatment at 99.9° C. [2] [%] | digested after treatment with Proteinase K [3] [%] | cleavage by Proteinase K [3] | kass, association rate constant [4] | biotin binding / dissociation rate in radiobiotin dissociation assay [5] | Release 1 h (total release of the probe) ([6]; 25° C.) [%] | kdiss, dissociation rate constant ([6]; 25° C.) | Release 1 h (total release of the probe) ([6]; 50° C.) [%] | kdiss, dissociation rate constant ([6]; 50° C.) | ΔH (unfolding enthalpy) ([7]; DSC, sample without biotin, results from ref (8)) [kcal/mol] | Tm(+biotin) ([7]; DSC, with biotin, results from ref (8)) [°C] | Tm(−biotin) ([7]; DSC, without biotin, results from ref (8)) [°C] | ΔTm, change in Tm upon addition of a three-fold molar excess of biotin ([7]; DSC, results from ref (8)) [°C] | Tm, transition midpoint of heat denaturation ([7]; from ref (8)) [°C] | resistance to cleavage by Proteinase K [8] |
| --- | --- | --- | --- | --- | --- | --- | --- | --- | --- | --- | --- | --- | --- | --- | --- | --- | --- | --- | --- | --- |
| AVD(I117Y): Avidin with mutation I117Y in 1-3 subunit interface, produced in baculovirus-infected insect cells | 97.5 | 26.2 | 123.7 ± 0.1 | 128 ± 1.4 | 97.5 ± 0.4 | 47 | 50 | no cleavage was observed | (2.3 ± 0.3) × 10^4 M^−1s^−1 | very tight, avidin-like biotin binding | 3.0 | 0.81 10^−5 s^−1 | 56.5 | 1.61 10^−4 s^−1 | – | – | – | – | – | – |
| AVD: Chicken avidin obtained from Belovo S. A.; homotetrameric egg-white glycoprotein (SEQ ID NO:1) [reference compound] | – | – | – | – | – | 4 | 50 | no cleavage was observed | (2.6 ± 0.2) × 10^4 M^−1s^−1 | – | 10.7 | 2.04 10^−5 s^−1 | 71.5 | 2.74 10^−4 s^−1 | 78.6 ± 1.2 | 117.0 ± 0.7 | 83.5 ± 0.1 | 33.5 | 83.5 | – |
| streptavidin: Bacterial analogue of avidin from Streptomyces avidinii | – | – | – | – | – | – | – | – | – | – | – | – | – | – | – | – | – | – | – | resistant to cleavage |

Reference: patent US7268216B2, “Chimeric avidin mutants” (Licentia Oy, priority 2004, dated 2007)
